# Patent publication US20220169682A1 (PARIS SCIENCES ET LETTRES, published 2022)
# Target: T1, FKBP-NFAST (UniProt P62942 2-108)
# T1 construct: Expressed in HEK293T cells; also called cmyc-FKBP-linker-NFAST; pAG149; not shown: c-myc tag
# Experiment: split-FAST fluorescence complementation, confocal imaging of HEK293T cells, 100 nM rapamycin, HMBR or HBR-3,5DOM
# Protocol: FIG. 5A-B show HEK293T cells co-expressing FKBP-NFAST and FRB-CFASTn (n=10 or 11) which were labeled with 5 μM HMBR (FIG. 5A) or 10 μM HBR-3,5DOM (FIG. 5B) and imaged before and after addition of 100 nM rapamycin. Scale bars 10 μm. […] Cells expressing FAST were used as control. HMBR concentration was 10 μM. Excitation at 488 nm at 6.3 kW/cm2. Six cells were analyzed per condition. […] Scale bars 20 μm. […] Scale bars 20 μm.
# T1 sequence (P62942 other isoform, or with tags, fused parts or gaps): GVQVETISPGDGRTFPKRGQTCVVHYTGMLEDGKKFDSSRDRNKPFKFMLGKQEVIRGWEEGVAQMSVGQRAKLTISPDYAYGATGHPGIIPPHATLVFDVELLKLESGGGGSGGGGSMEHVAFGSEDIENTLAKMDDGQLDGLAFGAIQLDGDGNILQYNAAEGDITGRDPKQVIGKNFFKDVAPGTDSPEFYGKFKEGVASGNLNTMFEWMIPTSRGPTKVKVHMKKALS
row,Binder,binding result
1,"FRB-CFAST10 (other, also called FRB-CFASTn (n=10)) ILWHEMWHEGLEEASRLYFGERNVKGMFEVLEPLHAMMERGPQTLKETSFNQAYGRDLMEAQEWCRKYMKSGNVKDLTQAWDLYYHVFRRISKSGGGGSGGGGSGDSYWVFVKR",binds
2,"FRB-CFAST11 (other, Expressed in HEK293T cells; also called cmyc-FRB-linker-CFAST(115-125); pAG152; not shown: c-myc tag) ILWHEMWHEGLEEASRLYFGERNVKGMFEVLEPLHAMMERGPQTLKETSFNQAYGRDLMEAQEWCRKYMKSGNVKDLTQAWDLYYHVFRRISKSGGGGSGGGGSGDSYWVFVKRV",binds
